Measured values published in US20250152663A1, “COMPOSITION FOR PREVENTION OR TREATMENT OF DRY EYE DISEASE COMPRISING HAPLN1” (HAPLNSCIENCE INC., priority 2021, published 2025).
Entries after “also recorded” stand apart in the source; their conditions may differ.

Columns and labels:
rabbit dry eye model [1] = experiment: Tear film break up time (TFBUT), benzalkonium chloride-induced dry eye disease model; assay type: in vivo, New Zealand white rabbits
Experimental: (§1) One drop (0.05 ml) of 0.1% benzalkonium chloride (BAC) was administered to both eyes of rabbits twice a day (9:00 and 17:00) for 14 days, and then induction of dry eye was identified by examination of eyes, and the rabbits were classified into groups.
(§2) The test substance was dropped into the groups of the rabbit model twice a day (8:30 and 16:30) (Day 15 to 30 (total of 16 days)).
(§3) Anesthesia was induced by intramuscular injection of Xylazine and Ketamine, and then one drop of Alcaine Eye Drop was administered and tear and the eye drop remaining therein were removed by using Weck-cel cellulose spear. After putting STT paper on the lower eyelid, a length of a wet region for 5 minutes was measured (STT-2). In addition, stability of the tear film was tested by measuring tear film break up time (TFBUT, measurement of time taken for the tear film to break down). Furthermore, conditions of the cornea and fluorescent staining were identified by a slit test.
In this example, a method of measuring time until black spots appeared at fluorescent stained regions after applying one drop of sodium fluorescein to eyeballs. The black spots may appear within several seconds after blinking and occurs very quickly under the conditions of dry eye disease. That is, stability of the tear film was measured by measuring the tear film break up time (TFBUT, measurement of time taken for the tear film to break down).

rabbit dry eye model [2] = experiment: Tear volume assay (STT), benzalkonium chloride-induced dry eye disease model; assay type: in vivo, New Zealand white rabbits
Experimental: as §1, §2, §3

goblet cells = experiment: Goblet cells (PAS staining), rabbit dry eye model; assay type: in vivo, New Zealand white rabbits
Experimental: Eyes of the rabbits including conjunctiva were enucleated, fixed with a specific fixing solution to be embedded into paraffin, and microsectioned, followed by staining and analysis according to the purpose. In this regard, the eyeballs were stained by hematoxylin & eosin (H & E) staining and detachment of corneal epithelial tissue was analyzed. After PAS staining, distribution of goblet cells in the conjunctiva was measured. In addition, after conjunctiva epithelium indentation (impression cytology), PAS staining was performed and distribution of goblet cells was measured.
After 15 days of eye examination, on the 1st day after 16 days of drug treatment, eyes were enucleated, subjected to histopathological analysis, and paraffin blocked. Tissue was stained in a section slide by PAS staining (FIG. 17A). The number of goblet cells in a range of 200 μm^2 was measured and quantified (FIG. 17b).

[3] = tested on: human corneal epithelial cells; experiment: Scratch wound healing (cell proliferation and migration) under high osmotic pressure; assay type: cell-based; conditions: HCEC, 450 mOsM
Experimental: The human corneal epithelial cells were seeded onto 24 wells and incubated for 24 hours under low osmotic pressure conditions (314 mOsM). Then, after replacing the culture medium with a high osmotic pressure medium (450 mOsM), the cells were incubated for 48 hours. Then, the surface of the Petri dish was vertically scratched and washed twice, and then the culture medium was replaced with the high osmotic pressure medium again and simultaneously the cells were treated with different concentrations of the HAPLN1 protein-containing composition of the present disclosure (FIG. 2A). A reduction in the scratched area was confirmed by obtaining photographs using a microscope at a time of scratching (0 h) and after 30 hours (FIG. 2B). This was imaged and a ratio of an area filled with cells to an initial area was identified by using ImageJ (FIG. 2C).

[4] = tested on: MUC5AC in human conjunctiva epithelial cells (HConEpiC); experiment: Anti-MUC5AC fluorescence staining under high osmotic pressure; assay type: cell-based
Experimental: First, human conjunctiva epithelial cells (HConEpiC) obtained after 4th passage of culture were seeded onto 24 wells and incubated for 24 hours, and then treated with high osmotic pressure of 450 mOsM simultaneously with the composition of the present disclosure having various concentrations (0, 5, 10, 20, 50, 100, and 200 ng/ml) of the HAPLN1 protein or Cyclosporine A (0.1 μM). After 72 hours of incubation, the cells were immobilized with 4% paraformaldehyde for 30 minutes and washed with a buffer. Subsequently, fluorescence staining was performed by using Anti-MUC5AC (DAPI labels the nuclei).

[5] = tested on: human corneal epithelial cells; experiment: CCK-8 cell viability under high osmotic pressure (dry eye cell model); assay type: cell-based; conditions: HCEC, 450 mOsM
Experimental: In most dry eye diseases, tear decreases in the aqueous layer in an eyeball due to lacrimal hyposecretion or hyperevaporation of tear. In this case, osmotic pressure increases because water decreases while concentrations of proteins, lipids, carbohydrates, etc. contained in tear are constantly maintained. Based on this principle, in cellular level studies, NaCl is added to a cell culture medium to control the osmotic pressure, establish a dry eye disease model, and evaluate efficacy of a drug. Thus, in the present embodiment, by using a case with an osmotic pressure of 314 mOsM as a normal control and a case with a relatively high osmotic pressure of 450 mOsM as a dry eye disease model, effects of HAPLN1 protein on the relief of dry eye disease in human corneal epithelial cells under the high osmotic pressure conditions were verified. This is related to cell viability of human corneal epithelial cells.
In this experiments, a cell counting kit-8 (CCK-8), which allows a sensitive colorimetric assay used to measure cell viability and cytotoxicity, was used. That is, addition of WST-8, which is a highly water-soluble tetrazolium salt, to cells […] to produce an orange-colored formazan dye in the cells. Because the amount of the dye is related to the number of viable cells, a larger amount of the dye indicates more viable cells. […]

B1: hyaluronan and proteoglycan link protein 1 (HAPLN1) (protein, listed as Homo sapiens)
chain: MKSLLLLVLISICWADHLSDNYTLDHDRAIHIQAENGPHLLVEAEQAKVFSHRGGNVTLPCKFYRDPTAFGSGIHKIRIKWTKLTSDYLKEVDVFVSMGYHKKTYGGYQGRVFLKGGSDSDASLVITDLTLEDYGRYKCEVIEGLEDDTVVVALDLQGVVFPYFPRLGRYNLNFHEAQQACLDQDAVIASFDQLYDAWRGGLDWCNAGWLSDGSVQYPITKPREPCGGQNTVPGVRNYGFWDKDKSRYDVFCFTSNFNGRFYYLIHPTKLTYDEAVQACLNDGAQIAKVGQIFAAWKILGYDRCDAGWLADGSVRYPISRPRRRCSPTEAAVRFVGFPDKKHKLYGVYCFRAYN
Rabbit dry eye model [1]; after 10 days, regardless of the concentration of HAPLN1
  increase of TFBUT compared with Restasis: more than by Restasis
Rabbit dry eye model [1]; eye drop b.i.d., dry eye model less than 10 seconds
  tear film break up time (TFBUT): continuously increased
Rabbit dry eye model [1]; high concentration (50 μg/ml)
  tear film break up time (TFBUT): ≥ 30 s
Rabbit dry eye model [2]; after 10 days
  tear volume compared with Restasis: increased the tear volume far more than Restasis
Rabbit dry eye model [2]; concentration-dependent, from the 5th day, more than Restasis
  tear volume: consistently increased
Goblet cells; after 16 days of drug treatment, in proportion to the concentration
  number of goblet cells compared to the dry eye disease model: significantly increased
Goblet cells; high concentration (50 μg/ml)
  number of goblet cells compared to Restasis: far more increased
[3]; 5 and 10 ng/ml, 30 hours, normal cells about 82%
  scratched surface covered by cell proliferation and migration: about 60%
[3]; 5 to 100 ng/ml, 30 hours
  cell proliferation and migration phenomena of scratched surfaces: observed over the entire area
[3]; regardless of concentration, vs 0.1 μM Cyclosporin A
  area covered with migrated cells compared with Cyclosporin A: higher than 0.1 μM of Cyclosporin A
[4]; 450 mOsM, 10, 20, 50, 100, and 200 ng/ml, 72 hours
  numbers of cells secreting MUC5AC, compared with control: significantly greater than that of the normal control
[4]; 450 mOsM, at some concentrations, vs Cyclosporine A 0.1 μM
  numbers of cells secreting MUC5AC, compared with Cyclosporine A: greater than the case treated with Cyclosporine A
[5]; 5 to 100 ng/ml, incubated 24 hours or 48 hours, compared with normal cell group (314 mOsM)
  cell viability, CCK-8 absorbances (450 nm): not less than or similar to that of a normal cell group; also recorded: increased
[5]; regardless of concentration, vs 0.1 to 0.5 μM Cyclosporin A
  cell viability (CCK-8) compared with control drug Cyclosporin A: higher than 0.1 to 0.5 μM of Cyclosporin A
